Data taken from patent publication US20220306695A1, “COMPSTATIN ANALOGUES AND THEIR MEDICAL USES” (priority 2019, published 2022).
Starred links: 1 amine or outer side, 2 acyl side, 3 side chain; linkers in the order of their positions; H or OH if unused. Positions of bridges follow the written chain, without caps; N, C: chain ends. Non-standard residues stand in square brackets, D forms with d. Groups on a side chain read outwards from the residue. *: point of attachment. Trp(1-Me) = Cn1cc(C[C@H](N)C(=O)O)c2ccccc21; C18 diacid = O=C(O)CCCCCCCCCCCCCCCCC(=O)*; C16 diacid = O=C(O)CCCCCCCCCCCCCCC(=O)*; γGlu = O=C(O)[C@H](CCC(=O)[*:2])N[*:1]; Sar = CNCC(=O)O

Target: Human C3 (human, UniProt P01024 23-1663)
Test: cell-based or functional assay

Sequence of Human C3 (P01024 23-1663 limits assumed): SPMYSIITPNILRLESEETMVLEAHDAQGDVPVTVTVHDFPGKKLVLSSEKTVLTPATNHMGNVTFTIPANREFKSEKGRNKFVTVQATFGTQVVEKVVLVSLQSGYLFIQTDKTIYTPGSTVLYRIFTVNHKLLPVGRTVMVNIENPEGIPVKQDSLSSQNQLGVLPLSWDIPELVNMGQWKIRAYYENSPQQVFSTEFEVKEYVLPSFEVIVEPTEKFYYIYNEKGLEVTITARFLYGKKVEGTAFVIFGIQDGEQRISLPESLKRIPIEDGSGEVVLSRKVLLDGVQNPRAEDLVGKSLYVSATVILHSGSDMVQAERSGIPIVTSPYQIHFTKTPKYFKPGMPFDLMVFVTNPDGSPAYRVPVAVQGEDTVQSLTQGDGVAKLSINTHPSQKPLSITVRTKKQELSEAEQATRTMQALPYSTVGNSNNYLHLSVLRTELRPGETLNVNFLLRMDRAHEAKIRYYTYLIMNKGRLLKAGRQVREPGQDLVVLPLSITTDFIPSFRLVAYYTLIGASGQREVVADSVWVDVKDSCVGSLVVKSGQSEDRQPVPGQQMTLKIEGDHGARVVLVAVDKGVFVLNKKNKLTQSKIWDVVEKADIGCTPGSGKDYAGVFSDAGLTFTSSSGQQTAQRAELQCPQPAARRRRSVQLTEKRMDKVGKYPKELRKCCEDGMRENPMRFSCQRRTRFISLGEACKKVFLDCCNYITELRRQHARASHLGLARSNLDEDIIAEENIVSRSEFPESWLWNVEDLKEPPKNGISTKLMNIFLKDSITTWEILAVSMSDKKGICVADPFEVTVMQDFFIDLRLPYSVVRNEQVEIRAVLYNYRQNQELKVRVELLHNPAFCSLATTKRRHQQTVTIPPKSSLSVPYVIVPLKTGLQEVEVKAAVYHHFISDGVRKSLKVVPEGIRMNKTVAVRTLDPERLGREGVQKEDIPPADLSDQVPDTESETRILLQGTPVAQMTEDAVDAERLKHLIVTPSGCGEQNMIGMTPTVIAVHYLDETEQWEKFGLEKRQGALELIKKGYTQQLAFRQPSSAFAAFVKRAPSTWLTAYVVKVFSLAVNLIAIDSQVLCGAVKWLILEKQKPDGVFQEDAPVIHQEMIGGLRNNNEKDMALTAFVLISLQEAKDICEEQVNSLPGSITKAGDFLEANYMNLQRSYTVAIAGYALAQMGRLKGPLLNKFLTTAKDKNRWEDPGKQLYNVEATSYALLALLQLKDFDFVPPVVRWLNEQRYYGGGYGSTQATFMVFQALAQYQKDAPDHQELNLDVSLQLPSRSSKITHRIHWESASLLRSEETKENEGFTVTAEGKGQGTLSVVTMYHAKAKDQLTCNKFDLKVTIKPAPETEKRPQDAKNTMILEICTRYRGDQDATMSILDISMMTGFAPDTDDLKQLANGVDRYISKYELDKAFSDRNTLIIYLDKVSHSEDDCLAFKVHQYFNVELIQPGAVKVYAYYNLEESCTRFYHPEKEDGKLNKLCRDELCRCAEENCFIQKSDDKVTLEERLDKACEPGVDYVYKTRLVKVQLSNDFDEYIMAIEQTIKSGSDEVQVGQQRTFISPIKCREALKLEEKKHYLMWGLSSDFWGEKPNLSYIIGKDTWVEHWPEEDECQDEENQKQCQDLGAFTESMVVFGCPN

Row | Binder | IC50[nM], inhibition of hemolysis
1 | Ac-SEYCI[Trp(1-Me)]QDWGEHRC[Sar]EGKK([γGlu-Gly-γGlu-C18 diacid])-NH2 (disulfide 4-14; SMILES CC[C@H](C)[C@@H]1NC(=O)[C@@H](NC(=O)[C@H](Cc2ccc(O)cc2)NC(=O)[C@H](CCC(=O)O)NC(=O)[C@H](CO)NC(C)=O)CSSC[C@@H](C(=O)N(C)CC(=O)N[C@@H](CCC(=O)O)C(=O)NCC(=O)N[C@@H](CCCCN)C(=O)N[C@@H](CCCCNC(=O)CC[C@H](NC(=O)CNC(=O)CC[C@H](NC(=O)CCCCCCCCCCCCCCCCC(=O)O)C(=O)O)C(=O)O)C(N)=O)NC(=O)[C@H](CCCNC(=N)N)NC(=O)[C@H](Cc2c[nH]cn2)NC(=O)[C@H](CCC(=O)O)NC(=O)CNC(=O)[C@H](Cc2c[nH]c3ccccc23)NC(=O)[C@H](CC(=O)O)NC(=O)[C@H](CCC(N)=O)NC(=O)[C@H](Cc2cn(C)c3ccccc23)NC1=O) [Compound 115] | < 250 nM
2 | Ac-SEYCI[Trp(1-Me)]QDWGEHRC[Sar]EGAK([γGlu-Gly-γGlu-C18 diacid])-NH2 (disulfide 4-14; SMILES CC[C@H](C)[C@@H]1NC(=O)[C@@H](NC(=O)[C@H](Cc2ccc(O)cc2)NC(=O)[C@H](CCC(=O)O)NC(=O)[C@H](CO)NC(C)=O)CSSC[C@@H](C(=O)N(C)CC(=O)N[C@@H](CCC(=O)O)C(=O)NCC(=O)N[C@@H](C)C(=O)N[C@@H](CCCCNC(=O)CC[C@H](NC(=O)CNC(=O)CC[C@H](NC(=O)CCCCCCCCCCCCCCCCC(=O)O)C(=O)O)C(=O)O)C(N)=O)NC(=O)[C@H](CCCNC(=N)N)NC(=O)[C@H](Cc2c[nH]cn2)NC(=O)[C@H](CCC(=O)O)NC(=O)CNC(=O)[C@H](Cc2c[nH]c3ccccc23)NC(=O)[C@H](CC(=O)O)NC(=O)[C@H](CCC(N)=O)NC(=O)[C@H](Cc2cn(C)c3ccccc23)NC1=O) [Compound 112] | < 500 nM
3 | Ac-SEFCI[Trp(1-Me)]QDWGEHRCTEGEGGGK([γGlu-Gly-γGlu-C16 diacid])-NH2 (disulfide 4-14; SMILES CC[C@H](C)[C@@H]1NC(=O)[C@@H](NC(=O)[C@H](Cc2ccccc2)NC(=O)[C@H](CCC(=O)O)NC(=O)[C@H](CO)NC(C)=O)CSSC[C@@H](C(=O)N[C@H](C(=O)N[C@@H](CCC(=O)O)C(=O)NCC(=O)N[C@@H](CCC(=O)O)C(=O)NCC(=O)NCC(=O)NCC(=O)N[C@@H](CCCCNC(=O)CC[C@H](NC(=O)CNC(=O)CC[C@H](NC(=O)CCCCCCCCCCCCCCC(=O)O)C(=O)O)C(=O)O)C(N)=O)[C@@H](C)O)NC(=O)[C@H](CCCNC(=N)N)NC(=O)[C@H](Cc2c[nH]cn2)NC(=O)[C@H](CCC(=O)O)NC(=O)CNC(=O)[C@H](Cc2c[nH]c3ccccc23)NC(=O)[C@H](CC(=O)O)NC(=O)[C@H](CCC(N)=O)NC(=O)[C@H](Cc2cn(C)c3ccccc23)NC1=O) [Compound 131] | < 100 nM
4 | Ac-SEYCI[Trp(1-Me)]QDWGEHRC[Sar]EGEK([γGlu-Lys-γGlu-C18 diacid])-NH2 (disulfide 4-14) [Compound 116] | < 500 nM
5 | Ac-EGSAYCI[Trp(1-Me)]QDWGEHRC[Sar]EGKK([γGlu-Gly-γGlu-C18 diacid])-NH2 (disulfide 6-16; SMILES CC[C@H](C)[C@@H]1NC(=O)[C@@H](NC(=O)[C@H](Cc2ccc(O)cc2)NC(=O)[C@H](C)NC(=O)[C@H](CO)NC(=O)CNC(=O)[C@H](CCC(=O)O)NC(C)=O)CSSC[C@@H](C(=O)N(C)CC(=O)N[C@@H](CCC(=O)O)C(=O)NCC(=O)N[C@@H](CCCCN)C(=O)N[C@@H](CCCCNC(=O)CC[C@H](NC(=O)CNC(=O)CC[C@H](NC(=O)CCCCCCCCCCCCCCCCC(=O)O)C(=O)O)C(=O)O)C(N)=O)NC(=O)[C@H](CCCNC(=N)N)NC(=O)[C@H](Cc2c[nH]cn2)NC(=O)[C@H](CCC(=O)O)NC(=O)CNC(=O)[C@H](Cc2c[nH]c3ccccc23)NC(=O)[C@H](CC(=O)O)NC(=O)[C@H](CCC(N)=O)NC(=O)[C@H](Cc2cn(C)c3ccccc23)NC1=O) [Compound 110] | < 250 nM
6 | Ac-SEFCI[Trp(1-Me)]QDWGEHRC[Sar]EGEGGGK([γGlu-Gly-γGlu-C18 diacid])-NH2 (disulfide 4-14; SMILES CC[C@H](C)[C@@H]1NC(=O)[C@@H](NC(=O)[C@H](Cc2ccccc2)NC(=O)[C@H](CCC(=O)O)NC(=O)[C@H](CO)NC(C)=O)CSSC[C@@H](C(=O)N(C)CC(=O)N[C@@H](CCC(=O)O)C(=O)NCC(=O)N[C@@H](CCC(=O)O)C(=O)NCC(=O)NCC(=O)NCC(=O)N[C@@H](CCCCNC(=O)CC[C@H](NC(=O)CNC(=O)CC[C@H](NC(=O)CCCCCCCCCCCCCCCCC(=O)O)C(=O)O)C(=O)O)C(N)=O)NC(=O)[C@H](CCCNC(=N)N)NC(=O)[C@H](Cc2c[nH]cn2)NC(=O)[C@H](CCC(=O)O)NC(=O)CNC(=O)[C@H](Cc2c[nH]c3ccccc23)NC(=O)[C@H](CC(=O)O)NC(=O)[C@H](CCC(N)=O)NC(=O)[C@H](Cc2cn(C)c3ccccc23)NC1=O) [Compound 129] | < 100 nM
7 | Ac-ASGEYCI[Trp(1-Me)]QDWGEHRC[Sar]EGEK([γGlu-Gly-γGlu-C18 diacid])-NH2 (disulfide 6-16; SMILES CC[C@H](C)[C@@H]1NC(=O)[C@@H](NC(=O)[C@H](Cc2ccc(O)cc2)NC(=O)[C@H](CCC(=O)O)NC(=O)CNC(=O)[C@H](CO)NC(=O)[C@H](C)NC(C)=O)CSSC[C@@H](C(=O)N(C)CC(=O)N[C@@H](CCC(=O)O)C(=O)NCC(=O)N[C@@H](CCC(=O)O)C(=O)N[C@@H](CCCCNC(=O)CC[C@H](NC(=O)CNC(=O)CC[C@H](NC(=O)CCCCCCCCCCCCCCCCC(=O)O)C(=O)O)C(=O)O)C(N)=O)NC(=O)[C@H](CCCNC(=N)N)NC(=O)[C@H](Cc2c[nH]cn2)NC(=O)[C@H](CCC(=O)O)NC(=O)CNC(=O)[C@H](Cc2c[nH]c3ccccc23)NC(=O)[C@H](CC(=O)O)NC(=O)[C@H](CCC(N)=O)NC(=O)[C@H](Cc2cn(C)c3ccccc23)NC1=O) [Compound 113] | < 500 nM
8 | Ac-SEYCI[Trp(1-Me)]QDWGEHRC[Sar]EGEK([γGlu-Gly-γGlu-C18 diacid])-NH2 (disulfide 4-14; SMILES CC[C@H](C)[C@@H]1NC(=O)[C@@H](NC(=O)[C@H](Cc2ccc(O)cc2)NC(=O)[C@H](CCC(=O)O)NC(=O)[C@H](CO)NC(C)=O)CSSC[C@@H](C(=O)N(C)CC(=O)N[C@@H](CCC(=O)O)C(=O)NCC(=O)N[C@@H](CCC(=O)O)C(=O)N[C@@H](CCCCNC(=O)CC[C@H](NC(=O)CNC(=O)CC[C@H](NC(=O)CCCCCCCCCCCCCCCCC(=O)O)C(=O)O)C(=O)O)C(N)=O)NC(=O)[C@H](CCCNC(=N)N)NC(=O)[C@H](Cc2c[nH]cn2)NC(=O)[C@H](CCC(=O)O)NC(=O)CNC(=O)[C@H](Cc2c[nH]c3ccccc23)NC(=O)[C@H](CC(=O)O)NC(=O)[C@H](CCC(N)=O)NC(=O)[C@H](Cc2cn(C)c3ccccc23)NC1=O) [Compound 114] | < 500 nM
